Assay results published in publication PMC1783847.

Target: Bluetongue virus serotype 10 outer capsid protein VP2, unmodified full-length (Bluetongue virus serotype 10 (BTV-10))
Experiment: SDS-PAGE of non-denatured samples with western blot

## Bluetongue virus serotype 10 outer capsid protein VP2, unmodified full-length (natural protein)
  stoichiometry N: 3
